How the values were obtained:
Assay in all cases: cell-based or functional assay
[1] = target: 0260.v5.c36 Env pseudovirus (HIV-1)
[2] = target: 1394C9G1(Rev-) Env pseudovirus (HIV-1)
[3] = target: 3365.v2.c2 Env pseudovirus (HIV-1)
[4] = target: 3415.v1.c1 Env pseudovirus (HIV-1)
[5] = target: 62357_14_D3_4589 Env pseudovirus (HIV-1)
[6] = target: 6240_08_TA5_4622 Env pseudovirus (HIV-1)
[7] = target: 6244_13_B5_4576 Env pseudovirus (HIV-1)
[8] = target: 6535.3 Env pseudovirus (HIV-1)
[9] = target: 9004SS_A3_4 Env pseudovirus (HIV-1)
[10] = target: CAAN5342.A2 Env pseudovirus (HIV-1)
[11] = target: CNE17 Env pseudovirus (HIV-1)
[12] = target: CNE53 Env pseudovirus (HIV-1)
[13] = target: CNE58 Env pseudovirus (HIV-1)
[14] = target: Ce0393_C3 Env pseudovirus (HIV-1)
[15] = target: Ce1086_B2 Env pseudovirus (HIV-1)
[16] = target: Ce1172_H1 Env pseudovirus (HIV-1)
[17] = target: Ce2010_F5 Env pseudovirus (HIV-1)
[18] = target: Ce2060_G9 Env pseudovirus (HIV-1)
[19] = target: Ce703010054_2A2 Env pseudovirus (HIV-1)
[20] = target: Du156.12 Env pseudovirus (HIV-1)
[21] = target: Du172.17 Env pseudovirus (HIV-1)
[22] = target: Du422.1 Env pseudovirus (HIV-1)
[23] = target: HIV-001428-2.42 Env pseudovirus (HIV-1)
[24] = target: MS208.A1 Env pseudovirus (HIV-1)
[25] = target: PVO.4 Env pseudovirus (HIV-1)
[26] = target: Q461.e2 Env pseudovirus (HIV-1)
[27] = target: Q842.d12 Env pseudovirus (HIV-1)
[28] = target: QH0692.42 Env pseudovirus (HIV-1)
[29] = target: RHPA4259.7 Env pseudovirus (HIV-1)
[30] = target: SC05_8C11_2344 Env pseudovirus (HIV-1)
[31] = target: TRJO4551.58 Env pseudovirus (HIV-1)
[32] = target: TRO.11 Env pseudovirus (HIV-1)
[33] = target: WITO4160.33 Env pseudovirus (HIV-1)
[34] = target: ZM247v1(Rev-) Env pseudovirus (HIV-1)
[35] = target: ZM249M.PL1 Env pseudovirus (HIV-1)
[36] = target: ZM53M.PB12 Env pseudovirus (HIV-1)

B1: N49P23 (antibody, V domains shown)
VH: QVRLVQSGAGARKTGASMKLSCSTSGYTFTTHHGHFINWVRQARGQGLEWMGWMNPMTGQMNIEGKFQGRVTLTRDIYSDTAYMEMTRLTTGDTGTYYCARGDFGQNYPFHYWGQGSLVIVSS
VL: LSALTQPASVSGSPGQSVTISCSGTNRYLVSWYQQHPDKAPKLIIYDDNKRPSGISDRFSASRPDDTASLTISGLQTGDEATYWCASYERFGGGTRLTVLS
- IC50 [1]: 0.261 µg/mL
- IC80 [1]: 0.919 µg/mL
- MPI [1]: 100
- IC50 [2]: > 50 µg/mL
- IC80 [2]: > 50 µg/mL
- MPI [2]: 34
- IC50 [3]: 0.017 µg/mL
- IC80 [3]: 0.053 µg/mL
- MPI [3]: 100
- IC50 [4]: 0.054 µg/mL
- IC80 [4]: 0.19 µg/mL
- MPI [4]: 100
- IC50 [5]: 0.057 µg/mL
- IC80 [5]: 0.76 µg/mL
- MPI [5]: 95
- IC50 [6]: 0.215 µg/mL
- IC80 [6]: 1 µg/mL
- MPI [6]: 100
- IC50 [7]: 0.151 µg/mL
- IC80 [7]: 0.57 µg/mL
- MPI [7]: 100
- IC50 [8]: 0.127 µg/mL
- IC80 [8]: 0.855 µg/mL
- MPI [8]: 100
- IC50 [9]: 0.043 µg/mL
- IC80 [9]: 0.223 µg/mL
- MPI [9]: 100
- IC50 [10]: 0.412 µg/mL
- IC80 [10]: 1.38 µg/mL
- MPI [10]: 100
- IC50 [11]: 0.221 µg/mL
- IC80 [11]: 0.809 µg/mL
- MPI [11]: 100
- IC50 [12]: 0.026 µg/mL
- IC80 [12]: 0.095 µg/mL
- MPI [12]: 100
- IC50 [13]: > 50 µg/mL
- IC80 [13]: > 50 µg/mL
- MPI [13]: 9
- IC50 [14]: > 50 µg/mL
- IC80 [14]: > 50 µg/mL
- MPI [14]: 29
- IC50 [15]: 0.063 µg/mL
- IC80 [15]: 0.303 µg/mL
- MPI [15]: 100
- IC50 [16]: > 50 µg/mL
- IC80 [16]: > 50 µg/mL
- MPI [16]: 0
- IC50 [17]: 1.59 µg/mL
- IC80 [17]: 11.6 µg/mL
- MPI [17]: 91
- IC50 [18]: 0.18 µg/mL
- IC80 [18]: 0.849 µg/mL
- MPI [18]: 99
- IC50 [19]: > 50 µg/mL
- IC80 [19]: > 50 µg/mL
- MPI [19]: 35
- IC50 [20]: > 50 µg/mL
- IC80 [20]: > 50 µg/mL
- MPI [20]: 0
- IC50 [21]: > 50 µg/mL
- IC80 [21]: > 50 µg/mL
- MPI [21]: 45
- IC50 [22]: > 50 µg/mL
- IC80 [22]: > 50 µg/mL
- MPI [22]: 4
- IC50 [23]: 0.036 µg/mL
- IC80 [23]: 0.241 µg/mL
- MPI [23]: 98
- IC50 [24]: 0.048 µg/mL
- IC80 [24]: 0.279 µg/mL
- MPI [24]: 100
- IC50 [25]: 0.087 µg/mL
- IC80 [25]: 0.43 µg/mL
- MPI [25]: 100
- IC50 [26]: 0.099 µg/mL
- IC80 [26]: 0.464 µg/mL
- MPI [26]: 100
- IC50 [27]: 0.007 µg/mL
- IC80 [27]: 0.022 µg/mL
- MPI [27]: 100
- IC50 [28]: 0.557 µg/mL
- IC80 [28]: 2.51 µg/mL
- MPI [28]: 100
- IC50 [29]: 0.01 µg/mL
- IC80 [29]: 0.04 µg/mL
- MPI [29]: 100
- IC50 [30]: 0.133 µg/mL
- IC80 [30]: 0.548 µg/mL
- MPI [30]: 100
- IC50 [31]: 0.016 µg/mL
- IC80 [31]: 0.068 µg/mL
- MPI [31]: 100
- IC50 [32]: 0.094 µg/mL
- IC80 [32]: 0.336 µg/mL
- MPI [32]: 100
- IC50 [33]: 0.045 µg/mL
- IC80 [33]: 0.205 µg/mL
- MPI [33]: 100
- IC50 [34]: > 50 µg/mL
- IC80 [34]: > 50 µg/mL
- MPI [34]: 24
- IC50 [35]: > 50 µg/mL
- IC80 [35]: > 50 µg/mL
- MPI [35]: 2
- IC50 [36]: 0.135 µg/mL
- IC80 [36]: 0.651 µg/mL
- MPI [36]: 100

B2: N49P22 (antibody, V domains shown)
V domain 1: HIQLLQSGPQVKKSGDTVRISCETSGYNFVDSRIHWVRQTPEKRLRWMGWINPLQGGVNYAPEFQGRIRMTRDTFIDTVYVDLSGLTPADTAYYYCARGIDGKSYPFHFWGHGTRVTVFS
V domain 2: RFALTQPASVSGSPGQTITITCAGGSVSWFHFPPGKTPRLIIYESSKRPSGVSPRFSGSQSGSTASLIISGLQSDDEGTYFCSILEFFGRGTLVTVLS
- IC50 [1]: 1.67 µg/mL
- IC80 [1]: 14.4 µg/mL
- MPI [1]: 93
- IC50 [2]: > 50 µg/mL
- IC80 [2]: > 50 µg/mL
- MPI [2]: 35
- IC50 [3]: 0.254 µg/mL
- IC80 [3]: 0.857 µg/mL
- MPI [3]: 98
- IC50 [4]: 0.198 µg/mL
- IC80 [4]: 1.41 µg/mL
- MPI [4]: 96
- IC50 [5]: > 50 µg/mL
- IC80 [5]: > 50 µg/mL
- MPI [5]: 13
- IC50 [6]: 2.33 µg/mL
- IC80 [6]: 9.76 µg/mL
- MPI [6]: 93
- IC50 [7]: 0.565 µg/mL
- IC80 [7]: 2.48 µg/mL
- MPI [7]: 97
- IC50 [8]: > 50 µg/mL
- IC80 [8]: > 50 µg/mL
- MPI [8]: 5
- IC50 [9]: > 50 µg/mL
- IC80 [9]: > 50 µg/mL
- MPI [9]: 42
- IC50 [10]: 0.425 µg/mL
- IC80 [10]: 1.88 µg/mL
- MPI [10]: 99
- IC50 [11]: 46.3 µg/mL
- IC80 [11]: > 50 µg/mL
- MPI [11]: 53
- IC50 [12]: 0.779 µg/mL
- IC80 [12]: 5.11 µg/mL
- MPI [12]: 93
- IC50 [13]: 28.4 µg/mL
- IC80 [13]: > 50 µg/mL
- MPI [13]: 57
- IC50 [14]: > 50 µg/mL
- IC80 [14]: > 50 µg/mL
- MPI [14]: 12
- IC50 [15]: > 50 µg/mL
- IC80 [15]: > 50 µg/mL
- MPI [15]: 0
- IC50 [16]: > 50 µg/mL
- IC80 [16]: > 50 µg/mL
- MPI [16]: 0
- IC50 [17]: 2.05 µg/mL
- IC80 [17]: 11.7 µg/mL
- MPI [17]: 93
- IC50 [18]: > 50 µg/mL
- IC80 [18]: > 50 µg/mL
- MPI [18]: 19
- IC50 [19]: > 50 µg/mL
- IC80 [19]: > 50 µg/mL
- MPI [19]: 0
- IC50 [20]: > 50 µg/mL
- IC80 [20]: > 50 µg/mL
- MPI [20]: 4
- IC50 [21]: > 50 µg/mL
- IC80 [21]: > 50 µg/mL
- MPI [21]: 4
- IC50 [22]: > 50 µg/mL
- IC80 [22]: > 50 µg/mL
- MPI [22]: 4
- IC50 [23]: 0.73 µg/mL
- IC80 [23]: 7.1 µg/mL
- MPI [23]: 91
- IC50 [24]: > 50 µg/mL
- IC80 [24]: > 50 µg/mL
- MPI [24]: 17
- IC50 [25]: 0.433 µg/mL
- IC80 [25]: 1.49 µg/mL
- MPI [25]: 100
- IC50 [26]: 11.2 µg/mL
- IC80 [26]: > 50 µg/mL
- MPI [26]: 66
- IC50 [27]: 0.079 µg/mL
- IC80 [27]: 0.359 µg/mL
- MPI [27]: 100
- IC50 [28]: 0.592 µg/mL
- IC80 [28]: 2.02 µg/mL
- MPI [28]: 100
- IC50 [29]: 0.637 µg/mL
- IC80 [29]: 5.6 µg/mL
- MPI [29]: 92
- IC50 [30]: 0.251 µg/mL
- IC80 [30]: 2.16 µg/mL
- MPI [30]: 97
- IC50 [31]: > 50 µg/mL
- IC80 [31]: > 50 µg/mL
- MPI [31]: 28
- IC50 [32]: 0.283 µg/mL
- IC80 [32]: 1.36 µg/mL
- MPI [32]: 99
- IC50 [33]: 4.86 µg/mL
- IC80 [33]: > 50 µg/mL
- MPI [33]: 74
- IC50 [34]: > 50 µg/mL
- IC80 [34]: > 50 µg/mL
- MPI [34]: 11
- IC50 [35]: > 50 µg/mL
- IC80 [35]: > 50 µg/mL
- MPI [35]: 0
- IC50 [36]: 1.2 µg/mL
- IC80 [36]: 11.8 µg/mL
- MPI [36]: 91

From US20240117018A1
